From patent publication EP4703388A1

Legend:
[1] = biological target: human tissue factor (TF) on MDA-MB-231, NCI-H358 and HCT116 cells (human) (UniProt P13726); experiment: cell-based or functional assay
[2] = biological target: HuRatTF, human-rat hybrid TF antigen (human-rat hybrid); experiment: ELISA, HuRatTF coated, antibody titrated
Sequence of HuRatTF, human-rat hybrid TF antigen (human-rat hybrid) (chain, as listed by the source limits assumed): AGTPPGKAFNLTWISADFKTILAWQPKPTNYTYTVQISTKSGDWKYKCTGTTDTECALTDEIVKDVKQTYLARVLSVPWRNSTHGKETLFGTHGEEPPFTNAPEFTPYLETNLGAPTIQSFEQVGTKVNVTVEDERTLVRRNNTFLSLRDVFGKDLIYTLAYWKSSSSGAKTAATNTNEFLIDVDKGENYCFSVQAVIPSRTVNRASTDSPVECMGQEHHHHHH

Sequence of human tissue factor (TF) on MDA-MB-231, NCI-H358 and HCT116 cells (human) (P13726 33-295): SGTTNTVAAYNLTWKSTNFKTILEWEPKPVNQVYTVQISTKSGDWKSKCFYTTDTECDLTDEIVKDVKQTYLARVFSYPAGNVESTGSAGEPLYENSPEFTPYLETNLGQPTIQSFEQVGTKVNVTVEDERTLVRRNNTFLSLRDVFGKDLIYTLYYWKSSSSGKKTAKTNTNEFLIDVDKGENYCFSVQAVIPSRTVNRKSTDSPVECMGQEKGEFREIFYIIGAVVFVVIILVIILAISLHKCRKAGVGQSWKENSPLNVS

Substance: TF011 (monoclonal antibody sequence of tisotumab vedotin)
- Inhibition rate (%), Factor-VII-Human Chromogenic-Activity blood coagulation pathway assay (FVIIa, MDA-MB-231 cells, FX; antibody 20 µg/mL) [1]: 92.8%
- Maximum (OD450 nm) [2]: 0.0585 OD450 nm
